Holding throughout (test): cell_activity; E. coli plasmid assay, median
Common to all, as to details: chain copies: 2

The target in data set [1] is Cre R292F + Cre Q311R (UniProt P06956;P06956 SEQ:1-343,SEQ:1-343, R292F (first monomer)). On the procedure:
(§1) To generate further obligate recombinases, additional single mutations in the catalytic region (i.e. at amino acid positions 129-136, 163-181, 199-211, 289-301, 310-316 and 321-324 of SEQ ID NO: 1, cf. FIG. 17A, dark regions) of the recombination synapse of the Cre recombinase (Guo et al. 1997, Lee et al. 2002, Gibb et al. 2010, Meinke et al. 2016) were introduced as outlined in Table 6 below. […] Recombination activity of the recombinases on loxP was measured by a plasmid-based assay as previously described (6, 9, 10). in the experiments, the recombined pEVO is smaller in size compared to the non-recombined pEVO. […] These two different fragments can either be distinguished by gel electrophoresis or by sequencing. The recombination efficiencies (indicated as dimer and monomer acitivty, respectively) were calculated based on the ratio of recombined and non-recombined substrate using the following formula: Recombination activity (%)=100×(recombined substrate/(recombined+non-recombined substrates)).

For data set [2], the target named is Cre K201A + Cre Q311R (UniProt P06956;P06956 SEQ:1-343,SEQ:1-343, K201A (first monomer)). As for the experimental part: as §1
In data set [3] the target is Cre Q311R + Cre W315S (UniProt P06956;P06956 SEQ:1-343,SEQ:1-343, W315S (second monomer)). On the procedure: as §1
The target in data set [4] is Cre R292Y + Cre Y324M (UniProt P06956;P06956 SEQ:1-343,SEQ:1-343, R292Y (first monomer); Y324M (second monomer)). As for the experimental part: as §1
Data set [5] deals with Cre H289D + Cre Q311R (UniProt P06956;P06956 SEQ:1-343,SEQ:1-343, H289D (first monomer)). On the procedure: as §1
Data set [6] deals with Cre R173F + Cre E176V (UniProt P06956;P06956 SEQ:1-343,SEQ:1-343, R173F (first monomer); E176V (second monomer)). On the procedure: as §1
The target in data set [7] is Cre E129R + Cre K201R (UniProt P06956;P06956 SEQ:1-343,SEQ:1-343, E129R (first monomer)). As for the experimental part: as §1
The target in data set [8] is Cre K201F + Cre Y324C (UniProt P06956;P06956 SEQ:1-343,SEQ:1-343, K201F (first monomer); Y324C (second monomer)). As for the experimental part:
as §1

Data set [9] addresses Cre Q311R + Cre W315M (UniProt P06956;P06956 SEQ:1-343,SEQ:1-343, W315M (second monomer)). As for the experimental part: as §1
Data set [10] has as its target Cre Q311R + Cre Y324I (UniProt P06956;P06956 SEQ:1-343,SEQ:1-343, Y324I (second monomer)). As for the experimental part:
as §1

For data set [11], the target named is Cre Q133H + Cre Q311R (UniProt P06956;P06956 SEQ:1-343,SEQ:1-343, Q133H (first monomer)). On the procedure: as §1
Data set [12] deals with Cre E176W + Cre Q311R (UniProt P06956;P06956 SEQ:1-343,SEQ:1-343, E176W (first monomer)). As for the experimental part:
as §1

Data set [13] concerns the target Cre E129R + Cre Q311R (UniProt P06956;P06956 SEQ:1-343,SEQ:1-343, E129R (first monomer)). As for the experimental part:
as §1

In data set [14] the target is Cre R173G + Cre K201Y (UniProt P06956;P06956 SEQ:1-343,SEQ:1-343, R173G (first monomer); K201Y (second monomer)). As for the experimental part:
as §1

In data set [15] the target is Cre R292G + Cre Q311R (UniProt P06956;P06956 SEQ:1-343,SEQ:1-343, R292G (first monomer)). On the procedure:
as §1

Data set [16] deals with Cre E176I + Cre Q311R (UniProt P06956;P06956 SEQ:1-343,SEQ:1-343, E176I (first monomer)). As for the experimental part: as §1
Data set [17] addresses Cre K201M + Cre K201R (UniProt P06956;P06956 SEQ:1-343,SEQ:1-343, K201M (first monomer)). On the procedure: as §1
In data set [18] the target is Cre R173A + Cre Q311R (UniProt P06956;P06956 SEQ:1-343,SEQ:1-343, R173A (first monomer)). As for the experimental part: as §1
Data set [19] has as its target Cre H289W + Cre W315C (UniProt P06956;P06956 SEQ:1-343,SEQ:1-343, H289W (first monomer); W315C (second monomer)). On the procedure: as §1
In data set [20] the target is Cre W315K + Cre Y324K (UniProt P06956;P06956 SEQ:1-343,SEQ:1-343, W315K (first monomer); Y324K (second monomer)). On the procedure: as §1
Data set [21] has as its target Cre Q311R + Cre Y324F (UniProt P06956;P06956 SEQ:1-343,SEQ:1-343, Y324F (second monomer)). As for the experimental part:
as §1

Data set [22] concerns the target Cre R173S + Cre Q311R (UniProt P06956;P06956 SEQ:1-343,SEQ:1-343, R173S (first monomer)). As for the experimental part: as §1
Data set [23] addresses Cre W315Q + Cre Y324V (UniProt P06956;P06956 SEQ:1-343,SEQ:1-343, W315Q (first monomer); Y324V (second monomer)). As for the experimental part: as §1

B1: loxP (dsDNA)
DNA 1: ATAACTTCGTATAATGTATGCTATACGAAGTTAT
DNA 2: ATAACTTCGTATAGCATACATTATACGAAGTTAT
As to B1, the activity is 42 % recombined in data set [1]; 95 % recombined in [2]; 37 % recombined in [3]; 90 % recombined in data set [4]; 97 % recombined in data set [5]; 82 % recombined in data set [6]. For the same molecule, the activity in data set [7] was found to be 26 % recombined; in [8] it was 98 % recombined; in data set [9], 95 % recombined; in [10] it was 96 % recombined; in data set [11], 96 % recombined; in data set [12], 90 % recombined. Further, the activity amounted to 93 % recombined in [13]; 95 % recombined in data set [14]; 97 % recombined in data set [15]; 36 % recombined in data set [16]; 76 % recombined in [17]; 93 % recombined in data set [18]. In addition, the activity in [19] is 87 % recombined; in data set [20], 99 % recombined; in [21], 95 % recombined; in data set [22], 97 % recombined; in [23], 97 % recombined.

The values are drawn from patent publication US20230183713A1, “SITE-SPECIFIC RECOMBINASES FOR EFFICIENT AND SPECIFIC GENOME EDITING” (TECHNISCHE UNIVERSITÄt DRESDEN, published 2023).
